Experimental data: the nanobody polyreactivity screen of Harvey et al. (2022)

Assay: yeast display, Sf9 membrane polyspecificity reagent, FACS + sequencing; frameworks hold sequencing errors
Method in brief: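 Nanobodies from a synthetic yeast display library (Saccharomyces cerevisiae BJ5465), induced 36–48 hours with galactose, were stained 1 hour at 4 °C with 10% biotinylated, detergent-solubilized Sf9 membrane reagent, enriched on streptavidin microbeads, then FACS-sorted. Anti-HA (expression) and streptavidin (reagent binding) fluorescence set low and high (top ~1%) gates. Polyreactivity labels come from the gate of origin. Genes were colony-PCR amplified, MiSeq 2 × 250 sequenced and filtered by CDR length.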

Row | Sequence | polyreactivity (PSR sort gate)
1 | QVQLVETGGGLVQAGGSLRLSCAPSGFIFYRNTMGWYRQAPGKERELDATISRRGGSTYYADSVKGRFTISRDNAKNTVYLQMNSLKPEDTAVYYCADGPRFSYYTHRYGYWGEGTQVTVSS | high polyreactivity
2 | QVQLVETGGGLVQAGGSLRLSGAASGRIFWVNAMGWYRQAPGKERELVAVISRGGSTTYADSVKGRFTISRDNAKNTVYLKMNSLKPEDTAVYYCAADAYRHAFLYYGYDYLGQGTQVTVSS | low polyreactivity
3 | QVQLVETGGGLVQAGGTLRLSCADSGFTFHQYTMGWYIPAPGKERELVAAITGTGDTYYADSVKGRFTISRDNAKNTVYLQMNSLKPEDTAVYYCNALYVYRSVANFDYWGQGTQVTVSS | high polyreactivity
4 | QVQLVETGGGLVQAVGSLRLSCAASGYTFLLYAMGWYRQAPGKERELVASISWNVGSTYYADSVKGRFTISRDNAKNTVYLQMNSLKPEDTAVYYCARGYERPRVATFHRFDYWGLGTQVTVSS | low polyreactivity
5 | QVQLVETGGGLVRAGGSLRLSCAASGRPFGRYAMGWYRQGPGKETELVAAITRTGITNYEVSVKGRFTISRDNAKNTVYLHMNSLNPEDTAVYYGAARRWLNCYGTGYGYWGQGTLVTVSS | high polyreactivity
6 | QVQLVETGGGVVHAGGSLRLSCAASGRIFRVDDMGWYRKAPGQERELVATINPTGGSTSYADSVKGRFTNSRDNAKNTVYLQMNSLTTEDTAVYYCAADCWYSVRKNWSRSGSFPFDYWRQGTQVTVSS | high polyreactivity
7 | QVQLVETGGRLVQAGGSLRLSCAASGFTFWTYAMGWYRQAPGKERELVAAISTSGGSTYYADSVKGRFTISRDNAKNTVYLQMNSLKPEDTAVYYCSAYAIGEHFRARYGYWGQGTQVTVSS | high polyreactivity
8 | QVQLVETGGRLVQAGGSLRLSCAASGSTFDIYVIGWSRQAPGKERELVAAISRVGNTSYADSVKGRFTISRDNAKNTVYLQMNSLIPEDTAVYYCAADAPSWYDRQYDYWGQGTQVTVSS | low polyreactivity
9 | QVQLVETGGVLVQAGGSLRLSCAASGRTFVYNAMGWYRHAPGKEREFVAAIDGGTGSTYYADSVKGRFTISRDNAKNTVYLQMNSLKPEDTAVYYCAVETYGGGYPVTYDYWGQGTQVTVSS | low polyreactivity
10 | QVQLVETGRGLVQAGGSLRLSCAASGRIFRGYAMGWYRQAPGKERELVAAINWSGGNTYYADSVKGRFTISRDNAKNTVYLQMNSLKPEDTAVYYCATLGYLGGGYWGQGTQVTVSS | high polyreactivity
11 | QVQLVETGRGLVQAGGSLRLSCAASGRIFYANAMGWYRQAPGKERELVAAISRTGGSTYYADSVKGRFTISRDNAKNTVYLQMNSLKPEDTAVYYCNALSGVYGYDDWGQGTQVTVSS | high polyreactivity
12 | QVQLVETGVGLVQAGGSLRVICAASGLTFYLYAMGWNRQAPGKERELAAAISSTGITNFADSVKGRFTISRDNAKNTVYLQMTSLKPEDTAVYYCNADYHPFFFEFNYWGKGTQVTVSS | high polyreactivity
13 | QVQLVETRGGLVQAGVSLRLICSASGSTFAPKSIGLYRQAPGKERELVAGLSWGDSTYYADSVKGRFTISRDNAKNTVYLQMISLKPEDTAVYFCAVRWVWNPCGIQGDWAVDYDYWGQGTQVTVSS | low polyreactivity
14 | QVQLVEYQGGLVQAGGSLRLSSAASGIIFDQYAMGWYRQAPGKEREVVAAITYSGGCTYYADSVNGRFTISRDNEKNTVYLQMNSLKPEDTAVYYCADLFGYSLYDAQYDYWGQGTQVTVSS | low polyreactivity
15 | QVQLVGSGGALVQAGGSLRLSCAASGRTFSYYAMGWYRQAPGKERELVASIRSSRTSTYYADSVKGRFTISRDNAKNTVYLQMNSLKPEDTAVYSCAKRYFTWRSTYNYWGQGTKVTVSS | high polyreactivity
16 | QVQLVGSGGGLVQAGGSLRLSCAASGRIFRYNAMGWYRQAPGKEREFVATISWRGGNTYYADSVKGRFTISRDNAKNTVYLQMNSLKPEDTAVYYCATRRLYSKSWYYYWGQGTQVTVSS | high polyreactivity

Row | Sequence | polyreactivity (PSR sort gate)
17 | QVQLVGSGGGLVQAGSSLRLTCAASGLIFTYYAMGWYRQAPGKEREFVAVIDSSGDSTNYADSVKGRFTISRDNAKNTVYLQMNSLKPEDTAVYYCNAYNWSYIYFPFVQEYRTYDYWGQGTQVTVSS | low polyreactivity
18 | QVQLVKSGGGLVQAGGSLRLSCAASGFTFFVYAMGWYRPAPGKERELVAAITSSGGSTYYADSVKGRFTISRDNAKNTVYLQMNSLKPEDTAVYYCAADRYSYLGYPYEYEYWGQGTQGTVSS | low polyreactivity
19 | QVQLVKSGGGLVQAGGSLRLSCAASGFTIYYYAMGWYRQAPGKEMELVASITSGGSTYYADSVKGRFTISRDNAKNTVYLQMNSLKPEDTAVYYCAKTRFHSKEGDYWGQGTQVTVSS | low polyreactivity
20 | QVQLVKSGGGLVQAGGSLRLSCAASGIIFWLYDMGWYRQAPGKERELVAVITWSGDSTYADSVKGRFTISRDNAKNTVYLQMNSLKPEDTAVYYCAAREYYRKPYDHWGQGTQVTVSS | high polyreactivity
21 | QVQLVKSGGGLVQAGGSLRLSCAASGSTFYNAMGWYRQAPGKEREWVAAISIGGSTYYADSVKGRFTISRYNAKNTVYLQMNSLKPEDTAVYYCNADLYYWLRYYDRNDYWGQGTQVTVSS | low polyreactivity
22 | QVQLVKSGGGLVQAGGSLRLSCAASGTFRLYAMGWYRQAPGKERDFVAAITYGGVGTYYADSVKGRFTISRDNAKHTVYLQMNSLNPEDTAVSYCAAELYLTDTDVEYSYWGQGTQVTVSS | low polyreactivity
23 | QVQLVQSAGGLVQAGGSLRLSCAASGFTFVKYAMGWYRQAPGKERELLAVISRRGGSTYYADSVKGRFTISRDNAKNTVYLHMNSLKPEDTAVYYCAAVYYLYSAWRYDYWGQGTQVTVSS | high polyreactivity
24 | QVQLVQSGGCLVQAGGSLRLSCAASGRIFGYYAIGWYRQAPGKERELVAGISRSGGSTYYADSVKWRFTISRDKAKNTVYLQMNSLKPEDTAVYYCAARFNGQTYYYWGQGTQGTVSS | high polyreactivity
25 | QVQLVQSGGGIVQAGGSLRISCAASGFIFSSYDMGWYRQAPGKESELVAAISWTGGSTYYADSVKARFTISRDNAKNTVYLQMTSLKPEETAVYYCNAYPYFLVRIMDSWGQGTEVTVSS | high polyreactivity
26 | QVQLVQSGGGLVEAGGSLRLSCAASGSNFWANAMGWYRQAPGKERELVAGITLNGGLTYYADSVKGRFTISRDNAKNTVYLQMYSLKPEETEVYFCAAAYPTDRHYYWGLGTQVTVSS | low polyreactivity
27 | QVQLVQSGGGLVQAAGSLRLICAASGRTFPANAMGWYRQAPGKERELVAGITKSGGNTYYADSVKGRFTISRDNAKNTVYLQMNSLKPEDTAVYYCATRYYPLVNYLGYDYWGQGTQVTVSS | low polyreactivity
28 | QVQLVQSGGGLVQAGGSLRISCAPSGLTCNGNAMGWYRQAPGKEREMVAAISSSGGTTYYADSVKGRFTISRDNAKNTVYLEMNSLKPEDTAVSYCAARPSGGYESTRTRDYWGQGTQVNVSS | low polyreactivity
29 | QVQLVQSGGGLVQAGGSLRLSCAASGIIFFKYAMGWYRQAPGKERELVAAITESTSSTYYADSVKGRFTISRDNAKNTVYLEMNSMKTEDTAVYYCAARVSQWLPYGGYSRYYYWGQGTQVTVSS | high polyreactivity
30 | QVQLVQSGGGLVQAGGSLRLSCAASGLTNYRYAMGWNRQAPGQEREFVAGISASGGGSSYADSVKGRFTISRDNAKNTVYLQMNRLKPEDTAVYYCAATTTFFVWQGHNYCGQGTQVTVSS | low polyreactivity
31 | QVQLVQSGGGLVQAGGSLRLSCAASGNIISIYVMGWYRQAPGKERELVAAITSGGSTNYADSVKGRFTISRDNAKNTVYFQMNSLKPEDTAVYYCAAERNADDESYYWGQGSQVTVSS | low polyreactivity
